{"source": "patent US20240299575A1", "about": "(DENALI THERAPEUTICS, published 2024)", "binders": {"B1": {"name": "TV variant SansFab (Fc polypeptide dimer without Fab, CH3C.35.23.2 on the knob chain, S239C on the hole chain) (designed binder)", "chain 1": "DKTHTCPPCPAPEAAGGPSVFLFPPKPKDTLMISRTPEVTCVVVDVSHEDPEVKFNWYVDGVEVHNAKTKPREEQYNSTYRVVSVLTVLHQDWLNGKEYKCKVSNKALPAPIEKTISKAKGQPREPQVYTLPPSRDELTKNQVSLWCLVKGFYPSDIAVEWESYGTEWANYKTTPPVLDSDGSFFLYSKLTVTKEEWQQGFVFSCSVMHEALHNHYTQKSLSLSPGK", "chain 2": "DKTHTCPPCPAPEAAGGPCVFLFPPKPKDTLMISRTPEVTCVVVDVSHEDPEVKFNWYVDGVEVHNAKTKPREEQYNSTYRVVSVLTVLHQDWLNGKEYKCKVSNKALPAPIEKTISKAKGQPREPQVYTLPPSRDELTKNQVSLSCAVKGFYPSDIAVEWESNGQPENNYKTTPPVLDSDGSFFLVSKLTVDKSRWQQGNVFSCSVMHEALHNHYTQKSLSLSPGK", "notes": "Fc knob-in-hole heterodimer with a portion of the IgG1 hinge and LALA mutations; also called No Fab"}, "B2": {"name": "TV variant S239C (RSV Fab-Fc dimer fusion, CH3C.35.23.2 on the knob chain, LALA, S239C on the hole chain) (antibody, human IgG1, kappa, L234A L235A)", "light": "DIQMTQSPSTLSASVGDRVTITCKCQLSVGYMHWYQQKPGKAPKLLIYDTSKLASGVPSRFSGSGSGTEFTLTISSLQPDDFATYYCFQGSGYPFTFGGGTKLEIKRTVAAPSVFIFPPSDEQLKSGTASVVCLLNNFYPREAKVQWKVDNALQSGNSQESVTEQDSKDSTYSLSSTLTLSKADYEKHKVYACEVTHQGLSSPVTKSFNRGEC", "heavy 1": "QVTLRESGPALVKPTQTLTLTCTFSGFSLSTSGMSVGWIRQPPGKALEWLADIWWDDKKDYNPSLKSRLTISKDTSKNQVVLKVTNMEPADTATYYCARSMITNWYFDVWGAGTTVTVSSASTKGPSVFPLAPSSKSTSGGTAALGCLVKDYFPEPVTVSWNSGALTSGVHTFPAVLQSSGLYSLSSVVTVPSSSLGTQTYICNVNHKPSNTKVDKKVEPKSCDKTHTCPPCPAPEAAGGPSVFLFPPKPKDTLMISRTPEVTCVVVDVSHEDPEVKFNWYVDGVEVHNAKTKPREEQYNSTYRVVSVLTVLHQDWLNGKEYKCKVSNKALPAPIEKTISKAKGQPREPQVYTLPPSRDELTKNQVSLWCLVKGFYPSDIAVEWESYGTEWANYKTTPPVLDSDGSFFLYSKLTVTKEEWQQGFVFSCSVMHEALHNHYTQKSLSLSPGK", "heavy 2": "QVTLRESGPALVKPTQTLTLTCTFSGFSLSTSGMSVGWIRQPPGKALEWLADIWWDDKKDYNPSLKSRLTISKDTSKNQVVLKVTNMEPADTATYYCARSMITNWYFDVWGAGTTVTVSSASTKGPSVFPLAPSSKSTSGGTAALGCLVKDYFPEPVTVSWNSGALTSGVHTFPAVLQSSGLYSLSSVVTVPSSSLGTQTYICNVNHKPSNTKVDKKVEPKSCDKTHTCPPCPAPEAAGGPCVFLFPPKPKDTLMISRTPEVTCVVVDVSHEDPEVKFNWYVDGVEVHNAKTKPREEQYNSTYRVVSVLTVLHQDWLNGKEYKCKVSNKALPAPIEKTISKAKGQPREPQVYTLPPSRDELTKNQVSLSCAVKGFYPSDIAVEWESNGQPENNYKTTPPVLDSDGSFFLVSKLTVDKSRWQQGNVFSCSVMHEALHNHYTQKSLSLSPGK", "notes": "also called S239C (100 nM); S239 variant"}, "B3": {"name": "TV variant S442C (RSV Fab-Fc dimer fusion, CH3C.35.23.2 on the knob chain, S442C on the hole chain) (antibody, human IgG1, kappa, L234A L235A)", "light": "B2 light", "heavy 1": "B2 heavy 1", "heavy 2": "B2 heavy 2 with C242S, S445C", "notes": "also called Conjugation site S442C"}, "B4": {"name": "TV variant OTR4 (RSV Fab-Fc dimer fusion, CH3C.35.23.2 on the knob chain, S239C and A330C on both chains) (antibody, human IgG1, kappa, L234A L235A)", "light": "B2 light", "heavy 1": "B2 heavy 1 with S242C, A333C", "heavy 2": "B2 heavy 2 with A333C", "notes": "also called OTR4 (2.5)"}, "B5": {"name": "TV variant 500 nM low affinity (RSV Fab-Fc dimer fusion, CH3C.35.23.4 on the knob chain, S239C on the hole chain) (antibody, human IgG1, kappa, L234A L235A)", "light": "B2 light", "heavy 1": "B2 heavy 1 with A392S, T416S", "heavy 2": "B2 heavy 2", "notes": "also called 500 nM variant"}, "B6": {"name": "TV variant OTR2 (RSV Fab-Fc dimer fusion, CH3C.35.23.2 on the knob chain, S239C on both chains) (antibody, human IgG1, kappa, L234A L235A)", "light": "B2 light", "heavy 1": "B2 heavy 1 with S242C", "heavy 2": "B2 heavy 2", "notes": "also called OTR2 (1.23)"}, "B7": {"name": "TV variant A330C (RSV Fab-Fc dimer fusion, CH3C.35.23.2 on the knob chain, A330C on the hole chain) (antibody, human IgG1, kappa, L234A L235A)", "light": "B2 light", "heavy 1": "B2 heavy 1", "heavy 2": "B2 heavy 2 with C242S, A333C", "notes": "also called Conjugation site A330C"}, "B8": {"name": "TV variant N297G knob (DNP02 Fab-Fc dimer fusion, CH3C.35.23.2 on the knob chain, LALAPG, N297G on the knob chain) (antibody, human IgG1, kappa, L234A L235A, N297G)", "light": "EIVMTQSPATLSLSPGERATLSCSASSSVSYMYWYQQKPGQAPRLLIYDTSNLASGIPARFSGSGSGTDFTLTISSLQPEDFAVYYCQQWSSYPPITFGQGTKVEIKRTVAAPSVFIFPPSDEQLKSGTASVVCLLNNFYPREAKVQWKVDNALQSGNSQESVTEQDSKDSTYSLSSTLTLSKADYEKHKVYACEVTHQGLSSPVTKSFNRGEC", "heavy 1": "QVQLQESGPGLVKPSETLSLTCAVSGYSITSDYAWNWIRQPPGKGLEWIGYMSYSGSTRYNPSLRSRVTISVDTSKNQFSLKLSSVTAADTAVYYCARGWPLAYWGQGTLVTVSSASTKGPSVFPLAPSSKSTSGGTAALGCLVKDYFPEPVTVSWNSGALTSGVHTFPAVLQSSGLYSLSSVVTVPSSSLGTQTYICNVNHKPSNTKVDKKVEPKSCDKTHTCPPCPAPEAAGGPSVFLFPPKPKDTLMISRTPEVTCVVVDVSHEDPEVKFNWYVDGVEVHNAKTKPREEQYGSTYRVVSVLTVLHQDWLNGKEYKCKVSNKALGAPIEKTISKAKGQPREPQVYTLPPSRDELTKNQVSLWCLVKGFYPSDIAVEWESYGTEWANYKTTPPVLDSDGSFFLYSKLTVTKEEWQQGFVFSCSVMHEALHNHYTQKSLSLSPGK", "heavy 2": "QVQLQESGPGLVKPSETLSLTCAVSGYSITSDYAWNWIRQPPGKGLEWIGYMSYSGSTRYNPSLRSRVTISVDTSKNQFSLKLSSVTAADTAVYYCARGWPLAYWGQGTLVTVSSASTKGPSVFPLAPSSKSTSGGTAALGCLVKDYFPEPVTVSWNSGALTSGVHTFPAVLQSSGLYSLSSVVTVPSSSLGTQTYICNVNHKPSNTKVDKKVEPKSCDKTHTCPPCPAPEAAGGPSVFLFPPKPKDTLMISRTPEVTCVVVDVSHEDPEVKFNWYVDGVEVHNAKTKPREEQYNSTYRVVSVLTVLHQDWLNGKEYKCKVSNKALGAPIEKTISKAKGQPREPQVYTLPPSRDELTKNQVSLSCAVKGFYPSDIAVEWESNGQPENNYKTTPPVLDSDGSFFLVSKLTVDKSRWQQGNVFSCSVMHEALHNHYTQKSLSLSPGK", "notes": "Knob-in-hole heterodimer with non-targeting DNP02 Fabs; also called BTGase Knob"}, "B9": {"name": "TV variant K149C (DNP02 Fab-Fc dimer fusion, CH3C.35.23.2 on the knob chain, LALAPG, K149C on the DNP02 light chain) (antibody, human IgG1, kappa, L234A L235A)", "light": "B8 light with K149C", "heavy 1": "B8 heavy 1 with G295N", "heavy 2": "B8 heavy 2", "notes": "Knob-in-hole heterodimer with non-targeting DNP02 Fabs"}, "B10": {"name": "TV variant A114C (DNP02 Fab-Fc dimer fusion, CH3C.35.23.2 on the knob chain, LALAPG, A114C (Kabat) on the hole chain) (antibody, human IgG1, kappa, L234A L235A)", "light": "B8 light", "heavy 1": "B8 heavy 1 with G295N", "heavy 2": "B8 heavy 2 with A116C", "notes": "as for B9"}, "B11": {"name": "TV variant N297G hole (DNP02 Fab-Fc dimer fusion, CH3C.35.23.2 on the knob chain, LALAPG, N297G on the hole chain) (antibody, human IgG1, kappa, L234A L235A, N297G)", "light": "B8 light", "heavy 1": "B8 heavy 1 with G295N", "heavy 2": "B8 heavy 2 with N295G", "notes": "Knob-in-hole heterodimer with non-targeting DNP02 Fabs; also called BTGase Hole"}, "B12": {"name": "TV variant T289C (DNP02 Fab-Fc dimer fusion, CH3C.35.23.2 on the knob chain, LALAPG, T289C on the hole chain) (antibody, human IgG1, kappa, L234A L235A)", "light": "B8 light", "heavy 1": "B8 heavy 1 with G295N", "heavy 2": "B8 heavy 2 with T287C", "notes": "as for B9"}, "B13": {"name": "TV variant N297G OTR2 (DNP02 Fab-Fc dimer fusion, CH3C.35.23.2 on the knob chain, LALAPG, N297G on both chains) (antibody, human IgG1, kappa, L234A L235A, N297G)", "light": "B8 light", "heavy 1": "B8 heavy 1", "heavy 2": "B8 heavy 2 with N295G", "notes": "Knob-in-hole heterodimer with non-targeting DNP02 Fabs; also called BTGase DAR2"}}, "note": "Positions count from the first letter of the chain named. Names and notes keep the numbering of the source."}
{"biological_target": "T1, Human transferrin receptor protein 1 (TFR1) (human, UniProt P02786 89-760, limits assumed)", "T1 construct": "also called huTfR", "T1 sequence (P02786 89-760 limits assumed)": "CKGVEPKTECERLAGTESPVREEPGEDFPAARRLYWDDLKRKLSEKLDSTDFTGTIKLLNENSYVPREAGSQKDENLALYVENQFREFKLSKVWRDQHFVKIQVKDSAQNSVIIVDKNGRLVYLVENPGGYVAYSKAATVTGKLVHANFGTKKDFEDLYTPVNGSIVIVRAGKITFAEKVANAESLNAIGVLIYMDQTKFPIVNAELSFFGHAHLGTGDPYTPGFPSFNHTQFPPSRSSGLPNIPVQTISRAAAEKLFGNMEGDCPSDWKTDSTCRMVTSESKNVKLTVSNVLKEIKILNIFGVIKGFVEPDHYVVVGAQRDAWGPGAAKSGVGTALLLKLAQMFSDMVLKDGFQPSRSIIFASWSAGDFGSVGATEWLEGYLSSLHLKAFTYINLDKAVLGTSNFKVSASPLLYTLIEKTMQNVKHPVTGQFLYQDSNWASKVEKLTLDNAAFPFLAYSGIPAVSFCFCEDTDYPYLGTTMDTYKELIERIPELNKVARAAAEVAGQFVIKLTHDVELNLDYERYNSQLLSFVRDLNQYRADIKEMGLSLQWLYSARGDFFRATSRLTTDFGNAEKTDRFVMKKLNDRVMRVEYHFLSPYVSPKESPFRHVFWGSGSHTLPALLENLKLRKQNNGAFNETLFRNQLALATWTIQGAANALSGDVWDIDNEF", "experiment": "column 'Affinity' of the construct table; method not stated", "units": {"Kd": "µM"}}
{"binder": "B1", "Kd": 0.1}
{"binder": "B2", "Kd": 0.1}
{"binder": "B3", "Kd": 0.1}
{"binder": "B4", "Kd": 0.1}
{"binder": "B5", "Kd": 0.5}
{"binder": "B6", "Kd": 0.1}
{"binder": "B7", "Kd": 0.1}
{"biological_target": "T1, Human transferrin receptor protein 1 …", "experiment": "column 'Affinity' of the construct table; method not stated", "remark": "another data set of the same source", "units": {"Kd": "µM"}}
{"binder": "B8", "Kd": 0.1}
{"binder": "B9", "Kd": 0.1}
{"binder": "B10", "Kd": 0.1}
{"binder": "B11", "Kd": 0.1}
{"binder": "B12", "Kd": 0.1}
{"binder": "B13", "Kd": 0.1}
